According to publication PMC7192611, “A transient α-helix in the N-terminal RNA recognition motif of polypyrimidine tract binding protein senses RNA secondary structure”:

Legend:
PTB RRM1 P142G = PTB RRM1 P142G (human, UniProt P26599-1 41-163, P142G); assay: NMR; alpha3 helicity increases on binding; ITC (30 C) and NMR (40 C): 20 mM NaCl, 10 mM NaH2PO4 pH 6.5. EMSA: 20 mM NaH2PO4 pH 7.2, 100 mM NaCl, 5 mM MgCl2, 5% glycerol, 1 mM DTT, 50 ug/ml yeast tRNA, 40 ug/ml BSA, room temperature; conditions: protein: recombinant; tags: intein tag removed; label: 13C/15N in some NMR samples; hairpin, 5-nt loop UCUUU (positions 10-14)
PTB RRM1 N143G/R146G = PTB RRM1 N143G/R146G (human, UniProt P26599-1 41-163, N143G;R146G); assay: ITC; Kd1; up to 3-fold; ITC (30 C) and NMR (40 C): 20 mM NaCl, 10 mM NaH2PO4 pH 6.5. EMSA: 20 mM NaH2PO4 pH 7.2, 100 mM NaCl, 5 mM MgCl2, 5% glycerol, 1 mM DTT, 50 ug/ml yeast tRNA, 40 ug/ml BSA, room temperature; conditions: protein: recombinant; tags: intein tag removed; label: 13C/15N in some NMR samples; hairpin, 5-nt loop UCUUU (positions 10-14)
PTB RRM1 L151G = PTB RRM1 L151G (human, UniProt P26599-1 41-163, L151G); assay: NMR; alpha3 does not fold; ITC (30 C) and NMR (40 C): 20 mM NaCl, 10 mM NaH2PO4 pH 6.5. EMSA: 20 mM NaH2PO4 pH 7.2, 100 mM NaCl, 5 mM MgCl2, 5% glycerol, 1 mM DTT, 50 ug/ml yeast tRNA, 40 ug/ml BSA, room temperature; conditions: protein: recombinant; tags: intein tag removed; label: 13C/15N in some NMR samples; hairpin, 5-nt loop UCUUU (positions 10-14)
PTB RRM1 WT [1] = target: T1, PTB RRM1 WT (human, UniProt P26599-1 41-163); assay: ITC; Kd1, two independent site model, 30 C; ITC (30 C) and NMR (40 C): 20 mM NaCl, 10 mM NaH2PO4 pH 6.5. EMSA: 20 mM NaH2PO4 pH 7.2, 100 mM NaCl, 5 mM MgCl2, 5% glycerol, 1 mM DTT, 50 ug/ml yeast tRNA, 40 ug/ml BSA, room temperature; conditions: protein: recombinant; label: 13C/15N in some NMR samples; hairpin, 5-nt loop UCUUU (positions 10-14)
PTB RRM1 K94A = PTB RRM1 K94A (human, UniProt P26599-1 41-163, K94A); assay: ITC; Kd1; almost 7-fold; ITC (30 C) and NMR (40 C): 20 mM NaCl, 10 mM NaH2PO4 pH 6.5. EMSA: 20 mM NaH2PO4 pH 7.2, 100 mM NaCl, 5 mM MgCl2, 5% glycerol, 1 mM DTT, 50 ug/ml yeast tRNA, 40 ug/ml BSA, room temperature; conditions: protein: recombinant; tags: intein tag removed; label: 13C/15N in some NMR samples; hairpin, 5-nt loop UCUUU (positions 10-14)
PTB RRM1 WT [2] = target: T1, PTB RRM1 WT; assay: NMR; docked alpha3 79%; ITC (30 C) and NMR (40 C): 20 mM NaCl, 10 mM NaH2PO4 pH 6.5. EMSA: 20 mM NaH2PO4 pH 7.2, 100 mM NaCl, 5 mM MgCl2, 5% glycerol, 1 mM DTT, 50 ug/ml yeast tRNA, 40 ug/ml BSA, room temperature; conditions: protein: recombinant; hairpin, loop GCUUU
PTB RRM1 WT [3] = target: T1, PTB RRM1 WT; assay: NMR; 45 C; modest shift changes; ITC (30 C) and NMR (40 C): 20 mM NaCl, 10 mM NaH2PO4 pH 6.5. EMSA: 20 mM NaH2PO4 pH 7.2, 100 mM NaCl, 5 mM MgCl2, 5% glycerol, 1 mM DTT, 50 ug/ml yeast tRNA, 40 ug/ml BSA, room temperature; conditions: protein: recombinant; single strand
PTB RRM1 WT [4] = target: T1, PTB RRM1 WT; assay: NMR; docked alpha3 78%; ITC (30 C) and NMR (40 C): 20 mM NaCl, 10 mM NaH2PO4 pH 6.5. EMSA: 20 mM NaH2PO4 pH 7.2, 100 mM NaCl, 5 mM MgCl2, 5% glycerol, 1 mM DTT, 50 ug/ml yeast tRNA, 40 ug/ml BSA, room temperature; conditions: protein: recombinant; hairpin, loop UCUU
PTB RRM1 WT [5] = target: T1, PTB RRM1 WT; assay: NMR; docked alpha3 66%; ITC (30 C) and NMR (40 C): 20 mM NaCl, 10 mM NaH2PO4 pH 6.5. EMSA: 20 mM NaH2PO4 pH 7.2, 100 mM NaCl, 5 mM MgCl2, 5% glycerol, 1 mM DTT, 50 ug/ml yeast tRNA, 40 ug/ml BSA, room temperature; conditions: protein: recombinant; hairpin, loop UCUGU
PTB RRM1 WT [6] = target: T1, PTB RRM1 WT; assay: NMR; alpha3 formed as with SL UCUUU; ITC (30 C) and NMR (40 C): 20 mM NaCl, 10 mM NaH2PO4 pH 6.5. EMSA: 20 mM NaH2PO4 pH 7.2, 100 mM NaCl, 5 mM MgCl2, 5% glycerol, 1 mM DTT, 50 ug/ml yeast tRNA, 40 ug/ml BSA, room temperature; conditions: protein: recombinant; hairpin, 9-nt loop with UUCUU at its 5' end
PTB RRM1 WT [7] = target: T1, PTB RRM1 WT; assay: NMR; docked alpha3 55%; ITC (30 C) and NMR (40 C): 20 mM NaCl, 10 mM NaH2PO4 pH 6.5. EMSA: 20 mM NaH2PO4 pH 7.2, 100 mM NaCl, 5 mM MgCl2, 5% glycerol, 1 mM DTT, 50 ug/ml yeast tRNA, 40 ug/ml BSA, room temperature; conditions: protein: recombinant; hairpin, loop UCGUU
PTB RRM1 WT [8] = target: T1, PTB RRM1 WT; assay: NMR; docked alpha3 49%; ITC (30 C) and NMR (40 C): 20 mM NaCl, 10 mM NaH2PO4 pH 6.5. EMSA: 20 mM NaH2PO4 pH 7.2, 100 mM NaCl, 5 mM MgCl2, 5% glycerol, 1 mM DTT, 50 ug/ml yeast tRNA, 40 ug/ml BSA, room temperature; conditions: protein: recombinant; hairpin, UUCG tetraloop

T1 sequence (P26599 41-163): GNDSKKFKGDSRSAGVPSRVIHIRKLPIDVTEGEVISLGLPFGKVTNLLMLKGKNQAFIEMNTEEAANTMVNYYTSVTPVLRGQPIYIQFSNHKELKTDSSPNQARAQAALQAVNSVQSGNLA
Sequence of PTB RRM1 L151G (P26599 41-163 L151G): as the sequence (P26599 41-163) above, with L111G counted along it
Sequence of PTB RRM1 K94A (P26599 41-163 K94A): as the sequence (P26599 41-163) above, with K54A counted along it
Sequence of PTB RRM1 P142G (P26599 41-163 P142G): as the sequence (P26599 41-163) above, with P102G counted along it
Sequence of PTB RRM1 N143G/R146G (P26599 41-163 N143G/R146G): as the sequence (P26599 41-163) above, with N103G, R106G counted along it

B1: SL UCUUU (structured_RNA)
RNA: GGGACCUGGUCUUUCCAGGUCCC
binding result (PTB RRM1 P142G): binds | binding signal (PTB RRM1 N143G/R146G): ~3 fold loss of affinity vs WT | binding result (PTB RRM1 L151G): binds | Kd (PTB RRM1 WT [1]): 100 ± 20 nM | binding signal (PTB RRM1 K94A): ~7 fold loss of affinity vs WT

B2: SL GCUUU (structured_RNA)
RNA: GGGACCUGGGCUUUCCAGGUCCC
binding result (PTB RRM1 WT [2]): binds

B3: CUCUCU ssRNA (ssRNA)
RNA: CUCUCU
binding result (PTB RRM1 WT [3]): binds

B4: SL UCUU_ (structured_RNA)
RNA: GGGACCUGGUCUUCCAGGUCCC
binding result (PTB RRM1 WT [4]): binds

B5: SL UCUGU (structured_RNA)
RNA: GGGACCUGGUCUGUCCAGGUCCC
binding result (PTB RRM1 WT [5]): binds

B6: hsa-mir-136 stem-loop (structured_RNA)
RNA: GAUGGAUUCUUAUGCUCCAUC
binding result (PTB RRM1 WT [6]): binds

B7: SL UCGUU (structured_RNA)
RNA: GGGACCUGGUCGUUCCAGGUCCC
binding result (PTB RRM1 WT [7]): binds

B8: SL UUCG (structured_RNA)
RNA: GGGACCUGGUUCGCCAGGUCCC
binding result (PTB RRM1 WT [8]): binds
